# Assay results from publication PMC7311918.
# Columns and labels:
# Assay in all cases: SEC-MALS
# [1] = molecular target: HCoV-229E S 2P trimer (S ectodomain, residues 17-1113) (HCoV-229E) (UniProt P15423)
# [2] = molecular target: HCoV-NL63 S 2P trimer (S ectodomain, residues 16-1291) (HCoV-NL63) (UniProt Q6Q1S2)
# [3] = molecular target: HCoV-OC43 S 2P trimer (S ectodomain, residues 15-1263) (HCoV-OC43)
substance,measurement,setting,value
"HCoV-229E S 2P trimer (S ectodomain, residues 17-1113) (from UniProt P15423 17-1113) (natural protein)",stoichiometry N,[1],3
"HCoV-NL63 S 2P trimer (S ectodomain, residues 16-1291) (from UniProt Q6Q1S2 16-1291) (natural protein)",stoichiometry N,[2],3
"HCoV-OC43 S 2P trimer (S ectodomain, residues 15-1263) (natural protein)",stoichiometry N,[3],3
